# Reference: US20200277377A1 (WUXI BIOLOGICS SHANGHAI, published 2020)
# Positions count from the first letter of the chain named.
# T1: hCTLA-4.ECD.hFc-Biotin (human, UniProt P16410 36-161, biotinylated (sites not given))
# T1 construct: extracellular domain; also called Biotinylated CTLA-4.ECD.hFc; biotinylated human CTLA4.ECD.hFc; not shown: human Fc tag (hFc)
# T1 sequence (looked up): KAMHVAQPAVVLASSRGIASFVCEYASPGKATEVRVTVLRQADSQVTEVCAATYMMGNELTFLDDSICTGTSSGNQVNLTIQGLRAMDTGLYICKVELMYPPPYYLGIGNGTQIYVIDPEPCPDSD
# T2: hCTLA4_ECD.His point mutant M134 to alanine (human, UniProt P16410 36-161)
# T2 construct: extracellular domain; alanine-scan mutein, HEK293F supernatant
# T2 sequence (looked up): T1 sequence (looked up) with M99A
# T3: hCTLA4_ECD.His point mutant V84 to alanine (human, UniProt P16410 36-161)
# T3 construct: extracellular domain; alanine-scan mutein, HEK293F supernatant
# T3 sequence (looked up): T1 sequence (looked up) with V49A
# T4: hCTLA4_ECD.His point mutant Y60 to alanine (human, UniProt P16410 36-161)
# T4 construct: extracellular domain; alanine-scan mutein, HEK293F supernatant
# T4 sequence (looked up): T1 sequence (looked up) with Y25A
# T5: hCTLA4_ECD.His point mutant G146 to alanine (human, UniProt P16410 36-161)
# T5 construct: extracellular domain; alanine-scan mutein, HEK293F supernatant
# T5 sequence (looked up): T1 sequence (looked up) with G111A
# T6: hCTLA4_ECD.His point mutant V71 to alanine (human, UniProt P16410 36-161)
# T6 construct: extracellular domain; alanine-scan mutein, HEK293F supernatant
# T6 sequence (looked up): T1 sequence (looked up) with V36A
# T7: hCTLA4_ECD.His point mutant E83 to alanine (human, UniProt P16410 36-161)
# T7 construct: extracellular domain; alanine-scan mutein, HEK293F supernatant
# T7 sequence (looked up): T1 sequence (looked up) with E48A
# T8: hCTLA4_ECD.His point mutant C85 to alanine (human, UniProt P16410 36-161)
# T8 construct: extracellular domain; alanine-scan mutein, HEK293F supernatant
# T8 sequence (looked up): T1 sequence (looked up) with C50A
# T9: hCTLA4_ECD.His point mutant P136 to alanine (human, UniProt P16410 36-161)
# T9 construct: extracellular domain; alanine-scan mutein, HEK293F supernatant
# T9 sequence (looked up): T1 sequence (looked up) with P101A
# B1: W3162_1.154.8-z35-uAb.IgG1K (antibody, V domains shown)
# VH: QVQLVQSGAEVKKPGSSVKVSCKASGYTFTNYFMNWVRQAPGQGLEWMGRVDPEQGRADYAEKFKKRVTITADKSTSTAYMELSSLRSEDTAVYYCARRAMDNYGFAYWGQGTLVTVSS
# VL: EIVLTQSPDFQSVTPKEKVTITCSANSALSYMYWYQQKPDQSPKLWVHGTSNLASGVPSRFSGSGSGTDFTLTINSLEAEDAATYYCHHWSNTQWTFGGGTKVEIK
# notes: Humanized; label says IgG1K
# B2: W3162-1.146.19-z12-uAb.IgG1K (antibody, V domains shown)
# VH: QVQLQESGPGLVKPSETLSLTCSVTYHTITSGYDWTWIRKPPGKGMEWIGYISYSGNTNYNPSLKSRVTISRDTSKNQFFLKLSSVTAADTAVYYCASMMVPHYYVMDAWGQGTLVTVSS
# VL: DIVMTQTPLSLSVTPGQPASISCRSSQSLLNSDGNTYLYWYLQKPGQSPQLLIYLVSKLGSGVPNRFSGSGSGTDFTLKISRVEAEDVGVYYCVQGTHDPWTFGGGTKVEIK
# notes: Humanized; label says IgG1K
# Legend:
# [1] = target: T10, cynomolgus monkey CTLA-4 ECD-6×His (cynomolgus monkey); test: ELISA, coated cynomolgus monkey CTLA-4.ECD-6×His
# T10 construct: extracellular domain; Bought; also called cynomoguls monkey CTLA-4.ECD-6×His
# Procedure: ELISA was used to test binding of anti-human CTLA-4 antibodies to human, murine and cynomolgus monkey CTLA-4 protein. A 96-well plate was coated with human CTLA-4.ECD-6×His (1.0 μg/mL), cynomoguls monkey CTLA-4.ECD-6×His (0.5 μg/mL) or mouse CTLA-4.ECD-6×His (0.5 μg/mL) at 4° C. for 16-20 hours. After 1 hour blocking with 2% BSA in DBPS, testing antibodies, as well as positive and negative control antibodies were added to the plates and incubated at room temperature for 1 hour. The binding of the antibodies to the plates were detected by HRP-conjugated goat anti-human IgG antibody (1:5000 dilution) with 1 hour incubation. The color was developed by dispensing 100 μL of TMB substrate for 8 mins, and then stopped by 100 μL of 2N HCl.
# hCTLA-4.ECD.hFc-Biotin [2] = target: T1, hCTLA-4.ECD.hFc-Biotin; test: FACS competition, hCTLA-4.ECD.hFc-Biotin on CD86-expressing CHO cells
# Procedure: (§1) PE conjugated Streptavidin was purchased from eBioscience (Catalog number 12-4317).
# (§2) Then the mixtures of antibody and CTLA-4 were added to the cells and incubated for 1 hour at 4° C. The cells were washed two times with 200 μL FACS buffer (DPBS containing 1% BSA). Streptavidin PE 1 to 333 diluted in FACS buffer was added to the cells and incubated at 4° C. for 1 hour. Additional washing steps were performed two times with 200 μL FACS buffer followed by centrifugation at 1500 rpm for 4 minutes at 4° C. Finally, the cells were resuspended in 100 μL FACS buffer and fluorescence values were measured by flow cytometry and analyzed by FlowJo.
# [3] = target: T2, hCTLA4_ECD.His point mutant M134 to …; test: capture ELISA, alanine scan, vs silent alanine substitutions
# Procedure: (§3) In order to test how the mutations affect antibody-binding, a capture ELISA was conducted. […] After interacting with the supernatant that contains quantified CTLA4 muteins, HRP conjugated anti-His antibody (1:5000; Rockland Immunochemicals, Pottstown, Pa.) was added as detection antibody. TMB was used as substance of HRP. Absorbance was normalized according to the average of control mutants. After setting an additional cutoff to the binding fold change (<0.55), the final determined epitope residues were identified.
# [4] = target: T3, hCTLA4_ECD.His point mutant V84 to …; test: as above
# Procedure: as §3
# [5] = target: T4, hCTLA4_ECD.His point mutant Y60 to …; test: as above
# Procedure: as §3
# [6] = target: T5, hCTLA4_ECD.His point mutant G146 to …; test: as above
# Procedure: as §3
# [7] = target: T6, hCTLA4_ECD.His point mutant V71 to …; test: as above
# Procedure: as §3
# [8] = target: T7, hCTLA4_ECD.His point mutant E83 to …; test: as above
# Procedure: as §3
# [9] = target: T8, hCTLA4_ECD.His point mutant C85 to …; test: as above
# Procedure: as §3
# [10] = target: T9, hCTLA4_ECD.His point mutant P136 to …; test: as above
# Procedure: as §3
# hCTLA-4.ECD.hFc-Biotin [11] = target: T1, hCTLA-4.ECD.hFc-Biotin; test: FACS competition, hCTLA-4.ECD.hFc-Biotin on CD80-expressing CHO cells
# Procedure: as §1, §2
binder,measurement,setting,value
B1,EC50,[1],0.05 nM
same,IC50,hCTLA-4.ECD.hFc-Biotin [2],0.28 nM
same,Fold change,[3],0.455 fold
same,Fold change,[4],0.232 fold
same,Fold change,[5],0.24 fold
same,Fold change,[6],0.201 fold
same,Fold change,[7],0.347 fold
same,Fold change,[8],0.479 fold
same,Fold change,[9],0.218 fold
same,Fold change,[10],0.155 fold
same,IC50,hCTLA-4.ECD.hFc-Biotin [11],0.07 nM
B2,EC50,[1],0.05 nM
same,IC50,hCTLA-4.ECD.hFc-Biotin [2],5.15 nM
same,Fold change,[3],0.254 fold
same,Fold change,[4],0.201 fold
same,Fold change,[5],0.223 fold
same,Fold change,[6],0.166 fold
same,Fold change,[7],0.343 fold
same,Fold change,[8],0.405 fold
same,Fold change,[9],0.256 fold
same,Fold change,[10],0.231 fold
same,IC50,hCTLA-4.ECD.hFc-Biotin [11],6.6 nM
